The source of these data is a protein production outcome set (Wang et al. 2014).
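Note: failed if final PepcDB status was selected cloned or expressed and not failed if soluble or beyond.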

The series can be described thus: label from the status in PepcDB records.
Consider “MLLAYSMKVVYHLFSGGKDSSLAAWILKKLGYEVKLITITFGVLDNWKFARETAEILGFDHEVIEMPIGILEKATEMCIKEGRAGNAIQYIHERALEYIASREEVKRISDGTRRDDRVPFLDLSKARSLEDRYNVAYIRPLLGLGYKTIRELVNEIFVVVEDESEKVQKGDYETELRELIRRKGHDPSQIFPKRHVQSRVVGLR”, for which the protein production entry is “not failed”.

“MFACMGVLVKLAAAFFSNTELVFYRSLVGVITTFLVMRAYGMPLVTEHWKSHCWRGLSGLGGVLLFFYCILQLPLATAISLNNTWPLFLAFLAMILLKEEFSWLLAGALVVGFIGVIFLLRPTLAEGQWYLALIGIGSGLFAGIAHFHVRQLSELGESDWLTVFYFTLVCTVATGLWLTFTAFSAVSLQSLTLALGIGVTATLAQLAISRAHRGSNILIVGVLSYSSVLFAGLMDLFFWDARLPVSAWVGMGLIILGGLLSIRGIPVRNSSIVTLDD”: the protein production entry is given as “failed”.

As for “MDELHPGYLVGLLVLLVACSAFFSCVETALLNLDRYRLRLQAKQGLRGARRSSWLLLHDDRLRGTLLFGRTLVNVSAAALASWAALRHWGVIGLAVAIPGMTLLLLLFGALLPRRYGALRSERVALPLSLPLLILQRLCWPLLWLLTLLSNALLRLLGVAAAEQDDSGRSRDEEALHPADNPQASEVNRHDMLLGLLDLEKVTVNDLMIPRNEIEGIDLDDELEVIVEQLRTTSHTRLPVYRDDVNQIEGVVHMRQIARLLTQGRLTKENLRQACMEPYFVPESTPLSTQLVNFQKEKRRIGVVVDEYGEVIGIVTLEDILEEIVGDFNDLDSLDNPDIQAQEDGSFVIDGSANLRELNKSLGWQLPCDGPKTLNGLVTEALEQIPDCAVCLRIGPYCLEIQQSAENRVKSVRAWHPRALTPLVESDASV”, the protein production result is listed as “failed”.

Regarding “MADFQGETEMTAEVFDPRALRDAFGAFATGVTVVTASDAAGKPIGFTANSFTSVSLDPPLLLVCLAKSSRNYESMTSAGRFAINVLSETQKDVSNTFARPVEDRFAAVDWRLGRDGCPIFSDVAAWFECSMQDIIEAGDHVIIIGRVTAFENSGLNGLGYARGGYFTPRLAGKAVSAAVEGEIRLGAVLEQQGAVFLAGNETLSLPNCTVEGGDPARTLAAYLEQLTGLNVTIGFLYSVYEDKSDGRQNIVYHALASDGAPRQGRFLRPAELAAAKFSSSATADIINRFVLESSIGNFGIYFGDETGGTVHPIANKDAHS”, the protein production result was “not failed”.

Take “MTHERGYDLASQVLNICNVHHKKLFCHITYRHLLVLSSDDNGCVILKKVITIADDFLKDEFLDLIAQHAHSLSMHDLGISLIQHVLELDFTKKTTQDDKRLHELMAEFDEVLSTSVTADVDKLHKLASKLMLDSDLFFEFVITRRGSLMIQIILGKSEEVDQVILAGVKQRFIDVTTNFYGYRIMIQTIKVFKKRGDLKVYDQILRLIGVHALYLTKDPDMGNKTFQHAINLHHQDCTTFIACGLQSHYIELSFLKHGSKIVEMLIDDRISMVPLVLLMMEIVKCDEDTLVRLATDEYGNNILKKFLALAKEHKEDFFGDLVDKLNPLLDSLRGTLGENIVAIIDSETEMVKDRIVSQGNN”: the protein production entry is listed as “failed”.

With “MRRHTSSLDDQSLWRVALDYARDAAVIIDDGGHICYVNQAAERIWGIGRADLVGSHSDCLGVDAIQPEPVAGSHLTNAASDLPLAIDITSRDNRSITAELTRSTIRVDGLNYTMLTVRDVT”, the protein production entry is on record as “failed”.

On to “MFFTDWEGPWILTDFALELCMAVFNNARFFSNLSEYDDYLAYEVRREGYEAGYTLKLLTPFLAAAGVKNRDVERIAELSAKFVPDAEKAMATLQERWTPVVISTSYTQYLRRTASMIGVRGELHGTEVDFDSIAVPEGLREELLSIIDVIASLSGEELFRKLDELFSRSEVRKIVESVKAVGAGEKAKIMRGYCESKGIDFPVVVGDSISDYKMFEAARGLGGVAIAFNGNEYALKHADVAIISPTAMSEAKVIELFMERKERAFEVLSAVSIPETEIYIMENSDFGEVLEKSKRMRVRLRGLAGELG”, for which the protein production entry is given as “not failed”.

Take “MEFLFILLPVFGIFAIGFIGQKTLKFDIPNLSKLTLYLMSPFLAFNTFYTNPLTMDYFYLAIYIFVLCLSLILLVSVISFLLGYNVQDRCALILASAFMNNGNYGTPVVLLVFGAAGLDIAVVLMVLQQLAMSTIGIYFAAKGSKDANGMKTVMTRVVRMPIAYGALLGLMLQLLHIPLPSALMTCVKLVGDAAIPTIMIVLGMQLAVISFRRIELDKVGIALVLKLLIAPFIAFGLTLILPVDEMTKQIMILLAAMPTAANTTLMAVQFDTKPDLVSSTTFISTVLSIITLPIVLYFLHPVF”: the protein production entry is recorded as “failed”.

In the case of “MVKVPVLRIGKVAAPTGADHALAGSAFPAKNAIADVNPPASPWIDKSVAAQRTEKAGLAAPRSEVTLDFVPPVTRRTPRITFPRRGRSDWTHSLTNSLRMSDTALVAAAVFAGFALNTNGLSLAAESPAFTHHLMTGLILGLVWLGALEVYRTRDPKVLGVGPEEYKRVLSASFRVFGFLGIVAVVFRLDAVSSFVLVSLPLGLVALTGSRWSFRRWLSHEKSRGRCLSRAIVVGEPQDVRYVIKQINRKSGAAYDILGACLPGARRGAVLKVDHLRVPVLSSIYGIAHTVRQTGANAVIVAGPVPGGNQFIQELGWQLEENAAELVLAATLTNVAGPRIHWRPVEGLPLMHVDIPHYSGGKHTLKRLMDITVSASALLILSPILLLLAAIVHHDSPGPVLFRQERVGRRGTTFHMLKFRSMVVDAESRLEELNTRDEGAGVLFKIRGDPRITRCGRWMRKYSLDELPQFWNVLVGNMSLVGPRPPLAREVSGYERHTHRRLLIKPGITGLWQINGRSDLPWDEAVRLDLYYVENWSIAGDLIIMWRTFRAMIQPSGAY”, the protein production result is “failed”.

Take “MKWDKKWNDGIILALETAFISWFTYAFLYQNYLLYKWHRGSPLPSKIPFVLAGIFVGLAFLAWKGRNLLKPLRENNGGALDERS”: the protein production entry is “failed”.

With “MDNLTHYLATTLRTLRHQRGWSLSRLAEISGVSKAMLGQIERNESSPTVATLWKIATGLNVPFSVFISPPQAEFPPTFDPQQQAMVITPLFPWDPELCFDYFSLLLAPGTVSESTPHKAGVIEHVVVIQGRLDMCTGGVWQTIDAGKGLRFAGDTAHTYRNSSDQTVHFHSLIHYPRD”, the protein production entry is reported as “failed”.

As for “AWAGLQTKHLKVGDIEWVYSESGNSSKPTIILIHGLAGSRDNWNRVAYNLTPYYHVIIPDLPAHGDTKIPNDFDLSIPNLTEKLRRFAEAGHFEKNVHIAGHSMGGAIALLYTAQYPLETKSLLLVDSAGVFKTANTPYLKDPNLLNNLVVKKTGDFDKLFKLATASPPFIPVELKTEQEKLMIAQSKNTQKMVDQLVAMSKIYTPDTFAIATKSIDVPTYIIWGDQDKIINVEAAQELKSLLKNAETPYILKGVGHMPILEADQLVSQQYLIFLNK”, the protein production result is on record as “failed”.

Regarding “MITIENSKFKAGIAERGAELQSLVNKADNYEYVWTGDKTFWNRHAPILFPSIGKSNQDQYRLGAKTYPMSQHGFARDYDFDVSDKSDSAVTFTQHQNAETLKKFPFEYTLAVTYMLTDGGLSVHYTVTNDDSKSMPFALGFHPAFNVGLKADGSFDDYDLTVEPLNSPLQRFGIGPVPFRNGDVEDIPGAEGNRLPLTHDLLDGGLVILANSEIAKATLASPHHDHSITLDISDFPYLTIWSPEHKKAPFIAVEPFDGLPDQAGEPTDWYTKLGNTTLSAGANKQLALKVELHLEHHHHHH”, the protein production result was “failed”.

Turning to “MKSKFFAQNRERLVNTLPDESITILFAGQAPHMSADAHYKFVPNRNFYYVTGIDEPNVIFMLKKFGNSVEETLFIEKSDPVMEKWVGKTVSNEEAEKISGIKKVIYLDSFEKTMSNIFFTENVKHLYLDLECREWKGTETKTLAFAKHVREQYPHVTIGNVYPNICELRVFKTDEEIEIIKEAIAVTKDGIYNVLKHAKADMMEYELEAQFDFTLKSSGIKHHAFNTILASGKNATVLHYEDNDAQIQNGDLVLLDLGAQKDYYNADISYTFPANGTFSSRQKQIYNIVLNALKETTEIIKPGLKFAALNEHAKKVLAEGCKAVGLIQEDEELSKYYYHGVSHFLGLDTHDVGTYKDRVLEEGMVITIEPGLYIEEESIGIRIEDDILVTKDGHENLSKDIIREVEEIEEFMRENNVNVKQDEVVTK”, the protein production result was “not failed”.

For “MSVTRRELLKLAGAAGAMSLAPAIVRAQKLEKAKVQIAVGGKPLIYYLPLTIAEVKGFFKDEGLDVSIADFAGGSKALQAVVGGSADVVSGAFEHTLSLQAKGQFYRAFALQGRAPMIGVGVSKKNLPGYKGPADLKGRKIGVTAPGSSTNMVVNFFLAKHGLKASDVSFIGVGAGAGAVTALRSGQIDAISNTDPVVSMLETSGDIQIIVDTRTLKDTKEIFGGNMPAGCLYAPQAFVDANPNTAQALTNAIVRADKWIQKAGADEIAKAVPEGYLLGDPAVYKAAIGKSMEGLSPDGVIPEDGAATALKALAAFVPDFDAAKVDPAKAWTNEYTRRANEKYPNG”, the protein production result was “not failed”.

As to “MKSVAGGLLRIGMRHDHDMTNRRLDAVILAGGCAHRLGGVAKANLRVGTRRLLDVVLDAVDGAREGLEGSNVVVARESVEVPWSVIRTMEDPPGSGPLAGIRAGLQALPPAQPDDLVLVCAVDSPGIGRSIRQLREALEDDPLNHFAGAVTFGGVPKPHRQLLQGLYRRVPLEASIAAADTVVNRSVHSVLGGLCLLDLPVEPEACRDLDTPGDVEWWLRHIGD”, the protein production result is on record as “failed”.

As to “SPMANSGPLCCTICHERLEDTHFVQCPSVPSHKFCFPCSRESIKAQGATGEVYCPSGEKCPLVGSNVPWAFMQGEIATIL”, the protein production entry is reported as “not failed”.

Turning to “IDGIFIMDAEGHYLDVNPAICSAIGYTRDEFLALDWGVLSRGVDSGWAAASLARIVGGEPLREERTVWTRNGDQLTVELSAHLLPD”, the protein production result was “failed”.

Regarding “MASGKSIMGGLPPLKPGEKLPRLQTVIATSPENPAGDPNIRPQQAGEAAGKVIGGGLGVLLVTVCVLLLLGPVLWAPGWAGLRVARFLSGPWQPWLAGFAAFVAVAVLQTFLLIQRHPALRYPIVTLFSVLWVGGLWLEFNSPRHDWVTTAPTLQMPGPWSWALIISGSVVYAGIYLLALAPVGKSRWARRWQLLK”, the protein production result is “failed”.

As to “MVTVMRTLMPKIGRIAAKMTLCALCVAPMFSVQATELNWPEQPFRYYADNDSLKDLLNNFGANYRVSVSVSDKVNDRVSGRFTPEDPAEFLDYLAQVYNLMWYFDGAVLHVYKATETRSRLLQLELLTARELRSTLISTGVWDARYGWRAAENKGLVYLAGPPRYVELVVQTAEALESRLLQKSNSTDELFVELIPLKYASATDRSISYRDQSITVPGIASVLSRVVGGVQTQITDSASVQTSSVNGLPAEAAKPRGKTASVHGGATVEAEPGLNAIIVRDTQARLPLYRKLVAQLDQPQSRIEVALSIVDISANDLRQLGVDWRAGVSVGNNRIVDIKTTGDVDNGDVTLGSGQSFKSLLDSTNLNYLLAQIRLLESKGSAQVVSRPTLLTQENVEAVLNNSSTFYVKLVGKETAALEEVTYGTLLRIVPRIVGDRFATRPEINLSLHLEDGAKIPDGGVDDLPSVRKTEISTLATVKQGQSLLIGGVYRDEVSHQLRKVPLLGDIPYLGALFRSNTNTTRRTVRMFIIEPRIVVDGIGDSVLIGNEHDLRPSIGQLNNISNNSAEFKSVVEVFSCTSKTQAERYQQDLLSQQKSSLLTQCQLPSGQVGWRVKVAECDLSQAECVRPSEEP”, the protein production result is on record as “failed”.

Regarding “MGLVIYDTLARRKVPFEPAVPGHVGIYVCGPTVYADPHLGHARGPVVYDVLRRYLLHKGYKVRFVSNITDVGHLTDDADEGEDKIVRRAKLERLEPMEVAEKYTWSYFDAMQALNVLRPSIAPRASGHIPEMLELTERLLARGVAYERKGSVYFRVRSFPEYGKLSGKRLEELRAGARVEVREEKEDPLDFALWKAAEPGHIMRWKSPWGEGYPGWHIECTAMSLKYLGEGFDLHAGGIDLQFPHHECEIAQAEAAGFRFARHWMHHNHVLLEGEKMAKSTGNLVLLHDLLEAHEPMALRFYLLQTHYRSPMDFTWEGLESAKRGYGRLLHAYREVRGRKKTAPPGTTPELERALDALEKAFMEAIEDDLSTPEALAALFAFLPELHKLLPEAKAESLARAEAVFHTLGEGILGLFPERVLEERVSGPLLEGLIALLLELREEARRAKDYEKSDLIRERLRALGVIVEDTKEGPRWRLER”, the protein production result is “not failed”.
